Results taken from patent US20210101982A1 (Seagen, published 2021).
Where a chain is given by its changes, count along the chain named. Values belong to the binder of their own block, whether it stands above or below them.

Assays:
[1] = target: PD-L1 on cells (cancer cell lines expressing PD-L1; PD-L1+ aAPC/CHO-K1 cells) (human, UniProt Q9NZQ7 19-290); test: cell-based or functional assay
[2] = target: T1, human PD-L1 (Acro Biosciences) (human, UniProt Q9NZQ7 19-238); test: BLI (Octet Red 384), antibody on anti-human Fab-CH1 sensors, human PD-L1 in solution, monovalent;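 further: after association, a 1000 s dissociation phase ran in buffer without PD-L1, on- and off-rate constants came from fitting the binding curves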
T1 construct: Bought protein, used in solution as the analyte in BLI; also called hPD-L1; CD274

[3] = target: T1, human PD-L1 (Acro Biosciences); test: BLI (Octet Red 384), antibody on sensors, human PD-L1 in solution; head prints x10^3 S^-1, read as x10^-3 as KD = koff/kon requires

Chain of PD-L1 on cells (cancer cell lines expressing PD-L1; PD-L1+ aAPC/CHO-K1 cells) (Q9NZQ7 19-290): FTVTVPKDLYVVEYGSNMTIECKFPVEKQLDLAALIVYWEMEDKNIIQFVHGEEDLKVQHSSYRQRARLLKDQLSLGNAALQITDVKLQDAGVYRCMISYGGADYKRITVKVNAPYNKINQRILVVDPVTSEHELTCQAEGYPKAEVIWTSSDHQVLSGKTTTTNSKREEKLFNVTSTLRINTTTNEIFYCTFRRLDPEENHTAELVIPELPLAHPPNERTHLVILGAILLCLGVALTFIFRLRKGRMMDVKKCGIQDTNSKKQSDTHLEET
T1 sequence (Q9NZQ7 19-238 limits assumed): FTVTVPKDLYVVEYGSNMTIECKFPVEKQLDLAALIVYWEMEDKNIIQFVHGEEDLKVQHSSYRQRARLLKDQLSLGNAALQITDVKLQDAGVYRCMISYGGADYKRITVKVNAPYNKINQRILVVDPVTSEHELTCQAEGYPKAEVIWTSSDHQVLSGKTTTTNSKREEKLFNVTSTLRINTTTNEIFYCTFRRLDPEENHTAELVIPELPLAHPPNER

B1: SG-559-02 - vc-MMAE (antibody, human IgG1, kappa, V domains shown)
VH: QVQLVQSGAEVKKPGSSVKVSCKTSGDTFSTYAISWVRQAPGQGLEWMGGIIPIFGKAHYAQKFQGRVTITADESTSTAYMELSSLRSEDTAVYFCARKFHFVSGSPFGMDVWGQGTTVTVSS
VL: EIVLTQSPATLSLSPGERATLSCRASQSVSSALAWYQQKPGQAPRLLIYDASNRATGIPARFSGSGSGTDFTLTISSLEPEDFAVYYCQQRSNWPTFGQGTKVEIKR
modifications: vc-MMAE drug-linker, average DAR of 4; sites not stated in the example
x50 (50% reduction in viability, CellTiter-Glo, 96 h) on 786-O cells [1]: > 3000 ng/mL | x50 (50% reduction in viability, CellTiter-Glo, 96 h) on BXPC3 cells [1]: 19.1 ng/mL | x50 (50% reduction in viability, CellTiter-Glo, 96 h) on KARPAS 299 cells [1]: 4.44 ng/mL | x50 (50% reduction in viability, CellTiter-Glo, 96 h) on L540CY cells [1]: 26 ng/mL | x50 (50% reduction in viability, CellTiter-Glo, 96 h) on MDA-MB-231 cells [1]: 26 ng/mL

B2: SG-559-02 - MP-PEG8-VKG-Camptothecin (antibody, human IgG1, kappa, V domains shown)
VH: B1 VH
VL: B1 VL
modifications: MP-PEG8-VKG-Camptothecin drug-linker, average DAR of 8; sites not stated in the example
x50 (50% reduction in viability, CellTiter-Glo, 96 h) on 786-O cells [1]: 283 ng/mL | x50 (50% reduction in viability, CellTiter-Glo, 96 h) on BXPC3 cells [1]: 20.1 ng/mL | x50 (50% reduction in viability, CellTiter-Glo, 96 h) on KARPAS 299 cells [1]: 6.72 ng/mL | x50 (50% reduction in viability, CellTiter-Glo, 96 h) on L540CY cells [1]: 9.97 ng/mL | x50 (50% reduction in viability, CellTiter-Glo, 96 h) on MDA-MB-231 cells [1]: 10.2 ng/mL

B3: SG-559-03 - vc-MMAE (antibody, human IgG1, kappa, V domains shown)
VH: B1 VH
VL: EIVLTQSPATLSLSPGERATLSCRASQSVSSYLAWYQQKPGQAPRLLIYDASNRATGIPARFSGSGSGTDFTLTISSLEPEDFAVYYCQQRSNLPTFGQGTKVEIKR
modifications: vc-MMAE drug-linker, average DAR of 4; sites not stated in the example
x50 (50% reduction in viability, CellTiter-Glo, 96 h) on 786-O cells [1]: > 3000 ng/mL | x50 (50% reduction in viability, CellTiter-Glo, 96 h) on BXPC3 cells [1]: 16.4 ng/mL | x50 (50% reduction in viability, CellTiter-Glo, 96 h) on KARPAS 299 cells [1]: 4.14 ng/mL | x50 (50% reduction in viability, CellTiter-Glo, 96 h) on L540CY cells [1]: 20.9 ng/mL | x50 (50% reduction in viability, CellTiter-Glo, 96 h) on MDA-MB-231 cells [1]: 22.9 ng/mL

B4: SG-559-03 - MP-PEG8-VKG-Camptothecin (antibody, human IgG1, kappa, V domains shown)
VH: B1 VH
VL: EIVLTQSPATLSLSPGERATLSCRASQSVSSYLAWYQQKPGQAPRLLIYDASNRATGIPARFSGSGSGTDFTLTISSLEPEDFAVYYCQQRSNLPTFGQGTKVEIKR
modifications: MP-PEG8-VKG-Camptothecin drug-linker, average DAR of 8; sites not stated in the example
x50 (50% reduction in viability, CellTiter-Glo, 96 h) on 786-O cells [1]: 1380 ng/mL | x50 (50% reduction in viability, CellTiter-Glo, 96 h) on BXPC3 cells [1]: 62.5 ng/mL | x50 (50% reduction in viability, CellTiter-Glo, 96 h) on KARPAS 299 cells [1]: 12.2 ng/mL | x50 (50% reduction in viability, CellTiter-Glo, 96 h) on L540CY cells [1]: 13.8 ng/mL | x50 (50% reduction in viability, CellTiter-Glo, 96 h) on MDA-MB-231 cells [1]: 15.1 ng/mL

B5: SG-559-04 - MP-PEG8-VKG-Camptothecin (antibody, human IgG1, kappa, V domains shown)
VH: B1 VH with P107G
VL: not shown
modifications: MP-PEG8-VKG-Camptothecin drug-linker, average DAR of 8; sites not stated in the example
x50 (50% reduction in viability, CellTiter-Glo, 96 h) on 786-O cells [1]: 190 ng/mL | x50 (50% reduction in viability, CellTiter-Glo, 96 h) on BXPC3 cells [1]: 23.3 ng/mL | x50 (50% reduction in viability, CellTiter-Glo, 96 h) on KARPAS 299 cells [1]: 5.95 ng/mL | x50 (50% reduction in viability, CellTiter-Glo, 96 h) on L540CY cells [1]: 10.7 ng/mL | x50 (50% reduction in viability, CellTiter-Glo, 96 h) on MDA-MB-231 cells [1]: 7.89 ng/mL

B6: SG-559-04 - vc-MMAE (antibody, human IgG1, kappa, V domains shown)
VH: B1 VH with P107G
VL: not shown
modifications: vc-MMAE drug-linker, average DAR of 4; sites not stated in the example
x50 (50% reduction in viability, CellTiter-Glo, 96 h) on 786-O cells [1]: > 3000 ng/mL | x50 (50% reduction in viability, CellTiter-Glo, 96 h) on BXPC3 cells [1]: 17.3 ng/mL | x50 (50% reduction in viability, CellTiter-Glo, 96 h) on KARPAS 299 cells [1]: 3.42 ng/mL | x50 (50% reduction in viability, CellTiter-Glo, 96 h) on L540CY cells [1]: 33.1 ng/mL | x50 (50% reduction in viability, CellTiter-Glo, 96 h) on MDA-MB-231 cells [1]: 24.3 ng/mL

Kd [2]: 33.3 nM | kon [2]: 420000 M⁻¹ s⁻¹ | koff [3]: 0.014 s⁻¹
B7: SG-559-02 (antibody, human IgG1, kappa, V domains shown)
VH: B1 VH
VL: B1 VL

Kd [2]: 66.6 nM | kon [2]: 329000 M⁻¹ s⁻¹ | koff [3]: 0.0219 s⁻¹
B8: SG-559-08 (antibody, human IgG1, kappa, V domains shown)
VH: B1 VH with H59A
VL: not shown

Kd [2]: 288 nM | kon [2]: 410000 M⁻¹ s⁻¹ | koff [3]: 0.118 s⁻¹
B9: SG-559-10 (antibody, human IgG1, kappa, V domains shown)
VH: B1 VH with S106A
VL: not shown

Kd [2]: 12.5 nM | kon [2]: 456000 M⁻¹ s⁻¹ | koff [3]: 0.0057 s⁻¹
B10: SG-559-17 (antibody, human IgG1, kappa, V domains shown)
VH: B1 VH
VL: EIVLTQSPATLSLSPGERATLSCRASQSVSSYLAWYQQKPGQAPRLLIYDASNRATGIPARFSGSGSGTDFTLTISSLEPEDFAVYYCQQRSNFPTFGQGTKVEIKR

Kd [2]: 10 nM | kon [2]: 285000 M⁻¹ s⁻¹ | koff [3]: 0.00284 s⁻¹
B11: SG-559-07 (antibody, human IgG1, kappa, V domains shown)
VH: B1 VH with K57R
VL: not shown

Kd [2]: 25.5 nM | kon [2]: 260000 M⁻¹ s⁻¹ | koff [3]: 0.00664 s⁻¹
B12: SG-559-09 (antibody, human IgG1, kappa, V domains shown)
VH: B1 VH with H59F
VL: not shown

Kd [2]: 24.5 nM | kon [2]: 490000 M⁻¹ s⁻¹ | koff [3]: 0.012 s⁻¹
B13: SG-559-03 (antibody, human IgG1, kappa, V domains shown)
VH: B1 VH
VL: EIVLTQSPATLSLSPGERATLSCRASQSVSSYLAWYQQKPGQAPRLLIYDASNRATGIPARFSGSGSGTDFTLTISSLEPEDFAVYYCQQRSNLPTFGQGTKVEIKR

Kd [2]: 4.3 nM | kon [2]: 381000 M⁻¹ s⁻¹ | koff [3]: 0.00162 s⁻¹
B14: SG-559-13 (antibody, human IgG1, kappa, V domains shown)
VH: B1 VH
VL: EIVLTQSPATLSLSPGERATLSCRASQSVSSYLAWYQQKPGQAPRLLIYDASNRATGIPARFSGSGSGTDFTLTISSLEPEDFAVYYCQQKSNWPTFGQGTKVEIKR

Kd [2]: 79.9 nM | kon [2]: 313000 M⁻¹ s⁻¹ | koff [3]: 0.025 s⁻¹
B15: SG-559-06 (antibody, human IgG1, kappa, V domains shown)
VH: B1 VH with K57A
VL: not shown

Kd [2]: 7.5 nM | kon [2]: 462000 M⁻¹ s⁻¹ | koff [3]: 0.00347 s⁻¹
B16: SG-559-15 (antibody, human IgG1, kappa, V domains shown)
VH: B1 VH
VL: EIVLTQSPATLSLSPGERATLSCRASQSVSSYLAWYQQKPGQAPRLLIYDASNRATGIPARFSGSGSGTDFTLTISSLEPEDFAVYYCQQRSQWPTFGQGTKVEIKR

Kd [2]: 25.6 nM | kon [2]: 390000 M⁻¹ s⁻¹ | koff [3]: 0.01 s⁻¹
B17: SG-559-04 (antibody, human IgG1, kappa, V domains shown)
VH: B1 VH with P107G
VL: not shown

Kd [2]: 119 nM | kon [2]: 357000 M⁻¹ s⁻¹ | koff [3]: 0.0424 s⁻¹
B18: SG-559-05 (antibody, human IgG1, kappa, V domains shown)
VH: B1 VH with F55A
VL: not shown

Kd [2]: 24.7 nM | kon [2]: 386000 M⁻¹ s⁻¹ | koff [3]: 0.00953 s⁻¹
B19: SG-559-16 (antibody, human IgG1, kappa, V domains shown)
VH: B1 VH
VL: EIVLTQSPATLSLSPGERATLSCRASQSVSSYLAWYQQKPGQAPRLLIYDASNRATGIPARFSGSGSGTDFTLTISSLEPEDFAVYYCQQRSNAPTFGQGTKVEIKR

Kd [2]: 8.9 nM | kon [2]: 399000 M⁻¹ s⁻¹ | koff [3]: 0.00355 s⁻¹
B20: SG-559-14 (antibody, human IgG1, kappa, V domains shown)
VH: B1 VH
VL: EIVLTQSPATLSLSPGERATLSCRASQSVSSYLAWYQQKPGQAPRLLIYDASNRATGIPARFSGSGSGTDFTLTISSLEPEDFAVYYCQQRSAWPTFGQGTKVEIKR
